Non-standard residues stand in square brackets, D forms with d. No end group written: not given here. *: point of attachment. Palmitoyl = CCCCCCCCCCCCCCCC(=O)*; AEEEA = NCCOCCOCCOCC(=O)O; AEEA = NCCOCCOCC(=O)O
B1: SEQ ID NO: 78 (peptide)
peptide: [AEEEA]K(Palmitoyl)VQKLAHQIYQFTDKDKDNSAPVDPSSPHSY-NH2
modifications: N-terminus assumed
SMILES: CCCCCCCCCCCCCCCC(=O)NCCCC[C@H](NC(=O)COCCOCCOCCN)C(=O)N[C@H](C(=O)N[C@@H](CCC(N)=O)C(=O)N[C@@H](CCCCN)C(=O)N[C@@H](CC(C)C)C(=O)N[C@@H](C)C(=O)N[C@@H](Cc1c[nH]cn1)C(=O)N[C@@H](CCC(N)=O)C(=O)N[C@H](C(=O)N[C@@H](Cc1ccc(O)cc1)C(=O)N[C@@H](CCC(N)=O)C(=O)N[C@@H](Cc1ccccc1)C(=O)N[C@H](C(=O)N[C@@H](CC(=O)O)C(=O)N[C@@H](CCCCN)C(=O)N[C@@H](CC(=O)O)C(=O)N[C@@H](CCCCN)C(=O)N[C@@H](CC(=O)O)C(=O)N[C@@H](CC(N)=O)C(=O)N[C@@H](CO)C(=O)N[C@@H](C)C(=O)N1CCC[C@H]1C(=O)N[C@H](C(=O)N[C@@H](CC(=O)O)C(=O)N1CCC[C@H]1C(=O)N[C@@H](CO)C(=O)N[C@@H](CO)C(=O)N1CCC[C@H]1C(=O)N[C@@H](Cc1c[nH]cn1)C(=O)N[C@@H](CO)C(=O)N[C@@H](Cc1ccc(O)cc1)C(N)=O)C(C)C)[C@@H](C)O)[C@@H](C)CC)C(C)C

Each binder was assayed against T1, CLR/RAMP1 receptor (UniProt Q16602 23-461; O60894 27-148, limits assumed) (assay: cell-based or functional assay).
T1 sequence (Q16602 23-461 limits assumed, chain 1 of 2): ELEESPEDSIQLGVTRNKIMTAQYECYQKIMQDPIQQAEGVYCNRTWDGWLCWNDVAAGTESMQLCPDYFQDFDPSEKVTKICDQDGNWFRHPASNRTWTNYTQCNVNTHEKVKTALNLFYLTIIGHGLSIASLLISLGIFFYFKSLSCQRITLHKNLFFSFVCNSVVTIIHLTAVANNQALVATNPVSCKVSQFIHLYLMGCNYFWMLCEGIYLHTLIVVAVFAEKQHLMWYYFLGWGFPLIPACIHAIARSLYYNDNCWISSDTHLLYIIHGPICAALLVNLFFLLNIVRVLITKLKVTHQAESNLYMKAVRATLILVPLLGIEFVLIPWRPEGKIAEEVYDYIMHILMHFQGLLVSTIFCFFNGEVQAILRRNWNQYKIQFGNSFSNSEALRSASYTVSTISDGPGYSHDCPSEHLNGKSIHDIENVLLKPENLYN
T1 sequence (O60894 27-148 limits assumed, chain 2 of 2): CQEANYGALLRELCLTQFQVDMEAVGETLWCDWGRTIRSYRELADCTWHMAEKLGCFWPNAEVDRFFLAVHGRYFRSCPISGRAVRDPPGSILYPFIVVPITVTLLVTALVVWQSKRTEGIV

In order of rising “EC50 (nM), CLR/RAMP1 cAMP assay” value:
1. miniPEG-K(Palmitoyl)GCRFGTCTVQKLAHQIYQFTDKDSAPVDPSSPHSY-NH2 (ends and bridges not checked) [SEQ ID NO: 48]  0.3 nM
2. Palmitoyl-KGCRFGTCTVQKLAHQIYQFTDKDSAPVDPSSPHSY-NH2 (ends and bridges not checked) [SEQ ID NO: 92]  0.4 nM
3. Palmitoyl-KGCRFGTCTVQKLAHQIYQFTDKDVAPRSKISPQGY-NH2 (ends and bridges not checked) [SEQ ID NO: 103]  4.5 nM

Each binder was assayed against T2, CLR/RAMP2 receptor (UniProt Q16602 23-461; O60895 43-175, limits assumed) (assay: cell-based or functional assay).
T2 sequence (Q16602 23-461 limits assumed, chain 1 of 2): as the sequence (Q16602 23-461 limits assumed, chain 1 of 2) above
T2 sequence (O60895 43-175 limits assumed, chain 2 of 2): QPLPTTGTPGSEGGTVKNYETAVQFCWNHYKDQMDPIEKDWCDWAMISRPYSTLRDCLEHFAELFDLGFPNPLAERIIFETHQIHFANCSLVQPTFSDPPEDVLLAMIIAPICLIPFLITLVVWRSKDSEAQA

In order of falling “EC50 (nM), CLR/RAMP2 arrestin assay” value:
1. Palmitoyl-KGCRFGTCTVQKLAHQIYQFTDKDVAPRSKISPQGY-NH2 (ends and bridges not checked) [SEQ ID NO: 103]  0.7 nM
2. KGCRFGTCTVQKLAHQIYQFTDKDKDNVAPRSKISPQGY (N-terminal miniPEG; palmitoyl on Lys 1 side chain, K(PAL); C-terminal amide) [SEQ ID NO: 69]  0.6 nM
3. Palmitoyl-KGCRFGTCTVQKLAHQIYQFTDKDSAPVDPSSPHSY-NH2 (ends and bridges not checked) [SEQ ID NO: 92]  0.3 nM
4. miniPEG-K(Palmitoyl)GCRFGTCTVQKLAHQIYQFTDKDSAPVDPSSPHSY-NH2 (ends and bridges not checked) [SEQ ID NO: 48]  0.2 nM

These binders were tested against T3, CLR/RAMP3 receptor (UniProt Q16602 23-461; O60896 24-148, limits assumed) (assay: cell-based or functional assay).
T3 sequence (Q16602 23-461 limits assumed, chain 1 of 2): as the sequence (Q16602 23-461 limits assumed, chain 1 of 2) above
T3 sequence (O60896 24-148 limits assumed, chain 2 of 2): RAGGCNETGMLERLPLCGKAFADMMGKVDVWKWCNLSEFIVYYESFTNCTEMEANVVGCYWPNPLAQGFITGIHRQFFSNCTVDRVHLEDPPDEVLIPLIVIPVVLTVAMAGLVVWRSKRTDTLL

In order of falling “EC50 (nM), CLR/RAMP3 cAMP assay” value:
1. KGCRFGTCTVQKLAHQIYQFTDKDKDNVAPRSKISPQGY (N-terminal miniPEG; palmitoyl on Lys 1 side chain, K(PAL); C-terminal amide) [SEQ ID NO: 69]  0.6 nM
2. miniPEG-K(Palmitoyl)GCRFGTCTVQKLAHQIYQFTDKDVAPRSKISPQGY-NH2 (ends and bridges not checked) [SEQ ID NO: 101]  0.5 nM
3. Palmitoyl-KGCRFGTCTVQKLAHQIYQFTDKDVAPRSKISPQGY-NH2 (ends and bridges not checked) [SEQ ID NO: 103]  0.3 nM
4. Palmitoyl-KGCRFGTCTVQKLAHQIYQFTDKDSAPVDPSSPHSY-NH2 (ends and bridges not checked) [SEQ ID NO: 92]  0.2 nM
5. miniPEG-K(Palmitoyl)GCRFGTCTVQKLAHQIYQFTDKDSAPVDPSSPHSY-NH2 (ends and bridges not checked) [SEQ ID NO: 48]  0.07 nM

Target: T1, CLR/RAMP1 receptor
Experiment: cell-based or functional assay
Remark: another data set of the same source

In order of rising “IC50 (nM), CGRP-stimulated CLR/RAMP1 cAMP assay” value:
1. [AEEA]K(Palmitoyl)VQKLAHQIYQFTDKDSAPVDPSSPHSY-NH2 [SEQ ID NO: 112]  1.8 nM
2. Palmitoyl-KVQKLAHQIYQFTDKDSAPVDPSSPHSY-NH2 [SEQ ID NO: 121]  3.2 nM
3. Palmitoyl-KVQKLAHQISAPVDPSSPHSY-NH2 [SEQ ID NO: 123]  4.7 nM
4. B1  4.8 nM
5. [AEEA]K(Palmitoyl)VQKLAHQIYSAPVDPSSPHSY-NH2 [SEQ ID NO: 114]  4.8 nM
6. Palmitoyl-KVQNLSHRLWQLMGPAGSAPVDPSSPHSY-NH2 [SEQ ID NO: 120]  5.8 nM
7. Palmitoyl-KVQKLAHQIYSAPVDPSSPHSY-NH2 [SEQ ID NO: 122]  7.3 nM
8. Palmitoyl-KVQKLAHQIYQFTDKDVAPRSKISPQGY-NH2 [SEQ ID NO: 119]  21 nM
9. Ac-TVQKLAHRLWQLMGPDKDNVAPRSKISPQGY-NH2 [SEQ ID NO: 116]  152 nM
10. Ac-VTHRLAGLLSRFTDKDKDNVAPRSKISPQGY-NH2 [SEQ ID NO: 115]  1880 nM

In order of rising “Max Activity % of positive control, CGRP-stimulated CLR/RAMP1 antagonist assay” value:
1. Palmitoyl-KVQKLAHQSAPVDPSSPHSY-NH2 [SEQ ID NO: 124]  95 % of positive control
2. B1  104 % of positive control

Target: T2, CLR/RAMP2 receptor
Experiment: cell-based or functional assay
Remark: another data set of the same source

In order of rising “IC50 (nM), ADM-stimulated CLR/RAMP2 arrestin assay” value:
1. Palmitoyl-KVQKLAHQIYQFTDKDVAPRSKISPQGY-NH2 [SEQ ID NO: 119]  0.6 nM
2. Palmitoyl-KVQKLAHQIYQFTDKDSAPVDPSSPHSY-NH2 [SEQ ID NO: 121]  4.9 nM
3. [AEEA]K(Palmitoyl)VQKLAHQIYQFTDKDSAPVDPSSPHSY-NH2 [SEQ ID NO: 112]  5.3 nM
4. Ac-TVQKLAHRLWQLMGPDKDNVAPRSKISPQGY-NH2 [SEQ ID NO: 116]  7.3 nM
5. B1  34 nM
6. Palmitoyl-KVQKLAHQISAPVDPSSPHSY-NH2 [SEQ ID NO: 123]  50 nM
7. Palmitoyl-KVQKLAHQIYSAPVDPSSPHSY-NH2 [SEQ ID NO: 122]  61 nM
8. Palmitoyl-KVQNLSHRLWQLMGPAGSAPVDPSSPHSY-NH2 [SEQ ID NO: 120]  85 nM
9. Ac-VTHRLAGLLSRFTDKDKDNVAPRSKISPQGY-NH2 [SEQ ID NO: 115]  117 nM
10. [AEEA]K(Palmitoyl)VQKLAHQIYSAPVDPSSPHSY-NH2 [SEQ ID NO: 114]  146 nM

In order of rising “Max Activity % of positive control, ADM-stimulated CLR/RAMP2 antagonist assay” value:
1. Palmitoyl-KVQKLAHQSAPVDPSSPHSY-NH2 [SEQ ID NO: 124]  103 % of positive control
2. B1  107 % of positive control

Target: T3, CLR/RAMP3 receptor
Experiment: cell-based or functional assay
Remark: another data set of the same source

In order of falling “IC50 (nM), CLR/RAMP3 cAMP antagonist assay” value:
1. Ac-VTHRLAGLLSRFTDKDKDNVAPRSKISPQGY-NH2 [SEQ ID NO: 115]  115 nM
2. Ac-TVQKLAHRLWQLMGPDKDNVAPRSKISPQGY-NH2 [SEQ ID NO: 116]  53 nM
3. Palmitoyl-KVQNLSHRLWQLMGPAGSAPVDPSSPHSY-NH2 [SEQ ID NO: 120]  9.2 nM
4. [AEEA]K(Palmitoyl)VQKLAHQIYSAPVDPSSPHSY-NH2 [SEQ ID NO: 114]  8.4 nM
5. Palmitoyl-KVQKLAHQIYSAPVDPSSPHSY-NH2 [SEQ ID NO: 122]  4.1 nM
6. [AEEA]K(Palmitoyl)VQKLAHQIYQFTDKDSAPVDPSSPHSY-NH2 [SEQ ID NO: 112]  2.3 nM
7. Palmitoyl-KVQKLAHQIYQFTDKDSAPVDPSSPHSY-NH2 [SEQ ID NO: 121]  1.8 nM
8. Palmitoyl-KVQKLAHQIYQFTDKDVAPRSKISPQGY-NH2 [SEQ ID NO: 119]  1.5 nM
9. B1  0.8 nM

In order of falling “Max Activity % of positive control, CLR/RAMP3 antagonist assay” value:
1. Palmitoyl-KVQKLAHQSAPVDPSSPHSY-NH2 [SEQ ID NO: 124]  102 % of positive control
2. B1  101 % of positive control
